Laboratory results from publication PMC8216286.
One block for each substance: values may come before it.

How the values were obtained:
[1] = target: SauCas9 (N580A/C946A) (Staphylococcus aureus) (UniProt J7RUA5); experiment: crystal structure; SauCas9 (N580A/C946A)-sgRNA-AcrIIA14ct-dsDNA quaternary complex, mixed at 1:1.2:5:2, purified by SEC; hanging drop, 20°C; 2.22 Å
[2] = target: Staphylococcus aureus Cas9 (SauCas9), wild type (Staphylococcus aureus) (UniProt J7RUA5); experiment: BLI; biotinylated SauCas9 protein (or SauCas9-sgRNA complex) loaded on streptavidin biosensors for 60 s; 20°C; 20 mM HEPES pH 7.55, 100 mM KCl, 10 mM MgCl2, 1 mM DTT, 5% glycerol; four or five concentrations of sample
[3] = test system: SauCas9 (Staphylococcus aureus); experiment: BLI; settings: 10 mM Mg2+, BLI: 20 mM HEPES pH 7.55, 100 mM KCl, 10 mM MgCl2, 1 mM DTT, 5% (w/v) glycerol, 20 C, complex for crystals: 10 mM Tris-HCl pH 8.0, 300 mM NaCl, 3 mM DTT

stoichiometry N (AcrIIA14ct per SauCas9) [1]: 1 | Kd [2]: 0.00558 nM
Substance: AcrIIA14ct (C-terminal domain of AcrIIA14, residues 60-159) (domain or fragment)

Kd [2]: 58 nM
Substance: AcrIIA14ct mutant H56K (domain or fragment)

Substance: SauCas9 sgRNA (BLI)
Kd ([3]; biotinylated SauCas9 on streptavidin sensor): 0.473 nM

Substance: SauCas9 sgRNA / target DNA (BLI)
Kd ([3]; target DNA as analyte, SauCas9-sgRNA complex presumably immobilized): 0.535 nM
